From patent publication US20250320312A1 (OXITOPE PHARMA B V, published 2025)

T1: Peptide 4: Biotin-AGGGGSGGGGSGGGGSAAA-Tyr-acid (N-terminal biotin; C-terminal acid)
T1 construct: Control peptide without PC
T1 peptide: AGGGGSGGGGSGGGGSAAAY

T2: Peptide 8: Biotin-AEAAAKEAAAKEAAAKEAAAKAAA-Tyr-acid (N-terminal biotin; C-terminal acid)
T2 construct: Control peptide without PC
T2 peptide: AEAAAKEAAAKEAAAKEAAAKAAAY


How the values were obtained:
Assay in all cases: scFv ELISA
BSA = BSA (UniProt P02769)
Chain of BSA (P02769 25-607 limits assumed): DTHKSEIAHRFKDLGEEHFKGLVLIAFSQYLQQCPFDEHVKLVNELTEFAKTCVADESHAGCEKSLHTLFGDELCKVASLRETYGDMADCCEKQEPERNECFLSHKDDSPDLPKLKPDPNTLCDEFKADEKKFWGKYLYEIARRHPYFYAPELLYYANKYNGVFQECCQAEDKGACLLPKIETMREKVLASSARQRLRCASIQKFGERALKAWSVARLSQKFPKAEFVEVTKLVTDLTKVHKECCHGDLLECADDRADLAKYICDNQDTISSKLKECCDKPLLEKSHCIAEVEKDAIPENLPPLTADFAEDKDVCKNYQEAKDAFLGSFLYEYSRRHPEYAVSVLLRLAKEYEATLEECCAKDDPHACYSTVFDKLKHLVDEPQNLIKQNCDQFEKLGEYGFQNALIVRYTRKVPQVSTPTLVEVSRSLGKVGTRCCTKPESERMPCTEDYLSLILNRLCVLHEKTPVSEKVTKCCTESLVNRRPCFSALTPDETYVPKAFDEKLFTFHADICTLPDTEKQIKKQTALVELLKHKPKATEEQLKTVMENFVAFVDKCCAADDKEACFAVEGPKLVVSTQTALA

[1] = molecular target: Peptide 1: Biotin-…-[Tyr(PC)]-acid
[2] = molecular target: Peptide 5: Biotin-…-[Tyr(PC)]-acid
[3] = molecular target: T1, Peptide 4: …
Summary of the method: (§1)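 Bound scFv was read as OD450 after HRP–anti-V5 detection, TMB development and HCl stop. PPE with BSA was incubated 1 h at RT on BSA-blocked wells coated overnight at 4° C. with peptide, or on streptavidin wells loaded 1 h with biotinylated PC-peptides at 1 μg/mL.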

[4] = molecular target: T2, Peptide 8: …
Summary of the method: as §1

| OD450 (BSA) | OD450 [1] | OD450 [2] | OD450 [3] | OD450 [4] | Binder |
| --- | --- | --- | --- | --- | --- |
| 0.08 OD450 | 1.09 OD450 | 0.89 OD450 | 0.05 OD450 | 0.05 OD450 | PcOxP_DB03_B09 (scFv, V domains shown, scFv in periplasmic extract) VH: EVQLLESGGGLVQPGGSLRLSCAASGFTFSSYYMEWVRQAPGKGLEWVAASRNKANDYTTEYADSVKGRFTISRDNSKNTLYLQMNSLRAEDTAVYYCARDYYGSSYWYFDVWGQGTLVTVSS VL: DIVMTQSPDSLAVSLGERATINCTASESLYSSKHKVHYLAWYQQKPGQPPKLLIYGAANRYIGVPDRFSGSGSGTDFTLTISSLQAEDVAVYYCAQFYSYPLTFGGGTKVEIK |
| 0.07 OD450 | 0.5 OD450 | 0.72 OD450 | 0.05 OD450 | 0.05 OD450 | PcOxP_DB03_B11 (scFv, V domains shown, scFv in periplasmic extract) VH: EVQLLESGGGLVQPGGSLRLSCAASGFTFSDFYVEWVRQAPGKGLEWVAASRNKANTYTTEYADSVKGRFTISRDNSKNTLYLQMNSLRAEDTAVYYCARDYYGSSYWYFDVWGQGTLVTVSS VL: DIVMTQSPDSLAVSLGERATINCTASESLYSSKHKVHYLAWYQQKPGQPPKLLIYGAQNRYIGVPDRFSGSGSGTDFTLTISSLQAEDVAVYYCGQFYSYPLTFGGGTKVEIK |
| 0.06 OD450 | 1.21 OD450 | 0.85 OD450 | 0.05 OD450 | 0.05 OD450 | PcOxP_DB03_B12 (scFv, V domains shown, scFv in periplasmic extract) VH: EVQLLESGGGLVQPGGSLRLSCAASGFQFSDFYMEWVRQAPGKGLEWVAASRWKANDYTTEYADSVKGRFTISRDNSKNTLYLQMNSLRAEDTAVYYCARDYYGSSYWYFDVWGQGTLVTVSS VL: DIVMTQSPDSLAVSLGERATINCTASESLYSSKHKVHYLAWYQQKPGQPPKLLIYGASNRYIGVPDRFSGSGSGTDFTLTISSLQAEDVAVYYCAQFYSYPLTFGGGTKVEIK |
| 0.08 OD450 | 0.84 OD450 | 1.47 OD450 | 0.05 OD450 | 0.05 OD450 | PcOxP_DB03_C01 (scFv, V domains shown, scFv in periplasmic extract) VH: EVQLLESGGGLVQPGGSLRLSCAASGFTFSDFYMEWVRQAPGKGLEWVAASRNKANDYTTEVADSVKGRFTISRDNSKNTLYLQMNSLRAEDTAVYYCARDYYGSSNWYFDVWGQGTLVTVSS VL: DIVMTQSPDSLAVSLGERATINCTASESLYSSKIKVHYLAWYQQKPGQPPKLLIYGAHNRYIGVPDRFSGSGSGTDFTLTISSLQAEDVAVYYCAQFYSYPLTFGGGTKVEIK |
| 0.06 OD450 | 0.98 OD450 | 0.9 OD450 | 0.05 OD450 | 0.05 OD450 | PcOxP_DB03_C08 (scFv, V domains shown, scFv in periplasmic extract) VH: EVQLLESGGGLVQPGGSLRLSCAASGSTFSDFYMEWVRQAPGKGLEWVAASRNKANDFTTEYADSVKGRFTISRDNSKNTLYLQMNSLRAEDTAVYYCARDYYGSSYWYFDVWGQGTLVTVSS VL: DIVMTQSPDSLAVSLGERATINCTASESLYSSKHKVHYLAWYQQKPGQPPKLLIYGASNRYSGVPDRFSGSGSGTDFTLTISSLQAEDVAVYYCAQFYHYPLTFGGGTKVEIK |
| 0.08 OD450 | 0.41 OD450 | 0.71 OD450 | 0.05 OD450 | 0.05 OD450 | PcOxP_DB03_B10 (scFv, V domains shown, scFv in periplasmic extract) VH: EVQLLESGGGLVQPGGSLRLSCAASGFTFSDYYMEWVRQAPGKGLEWVAASRNKANDYNTEYADSVKGRFTISRDNSKNTLYLQMNSLRAEDTAVYYCARDYYGSSYWYFDVWGQGTLVTVSS VL: DIVMTQSPDSLAVSLGERATINCTASESLYSSKHKVHYLAWYQQKPGQPPKLLIYGASNRYIGVPDRFSGSGSGTDFTLTISSLQAEDVAVYYCAQFYSYPLTFGGGTKVEIK |
| 0.07 OD450 | 2.11 OD450 | 1.72 OD450 | 0.04 OD450 | 0.04 OD450 | PcOxP_DB03_C04 (scFv, V domains shown, scFv in periplasmic extract) VH: EVQLLESGGGLVQPGGSLRLSCAASGFTFSDFYMEWVRQAPGKGLEWVAASRNKANDYTTEYADSVKGRFTISRDNSKNTLYLQMNSLRAEDTAVYYCARDYYGSSYWYNDVWGQGTLVTVSS VL: DIVMTQSPDSLAVSLGERATINCTASESLYSSKHKVHYLAWYQQKPGQPPKLLIYGASNRYIGVPDRFSGSGSGTDFTLTISSLQAEDVAVYYCAQFYTYPLTFGGGTKVEIK |
